In patent US20150284471A1 (Amgen, published 2015):
Positions count from the first letter of the chain named. Names may count otherwise. Read-outs that look alike come from different tables or passages of the source. Blank lines part the entries; values can stand above or below the binder they belong to.

What was measured:
[1] = target: T1, full-length wild type recombinant cynomolgus LCAT (cynomolgus monkey, UniProt Q08758 25-440 (Papio anubis entry)); assay: BIAcore 3000 SPR, antibody captured on goat anti-human IgG, LCAT as analyte; cyno LCAT
T1 construct: also called cyno LCAT
T1 chain: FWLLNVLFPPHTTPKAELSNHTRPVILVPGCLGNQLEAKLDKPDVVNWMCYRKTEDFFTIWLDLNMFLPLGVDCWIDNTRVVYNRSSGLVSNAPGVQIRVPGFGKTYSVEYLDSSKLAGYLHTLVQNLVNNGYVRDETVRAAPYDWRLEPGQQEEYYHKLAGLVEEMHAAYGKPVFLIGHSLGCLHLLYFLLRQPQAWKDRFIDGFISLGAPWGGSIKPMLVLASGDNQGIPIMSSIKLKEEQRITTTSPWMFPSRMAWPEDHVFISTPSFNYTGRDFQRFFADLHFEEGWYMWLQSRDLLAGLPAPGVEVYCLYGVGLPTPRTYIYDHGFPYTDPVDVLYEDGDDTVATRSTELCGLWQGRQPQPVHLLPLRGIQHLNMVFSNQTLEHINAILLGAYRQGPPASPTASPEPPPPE
Method: (§1) Biosensor analysis was conducted at 25° C. in a HBS-EP buffer system (10 mM HEPES pH 7.4, 150 mM NaCl, 3 mM EDTA, 0.005% Surfactant P20) using a Biacore 3000 optical biosensor equipped with a CMS sensor chip. All reagents were kept at 4° C. prior to injection.
(§2) Goat anti-human IgG (30 mg/mL) (abcam) was immobilized (10000 RU) over flow cells 1-4 via standard amine coupling and followed by ethanolamine blocking. Each antibody (150 ng/mL) was captured (−100 RU) on a separate flow cell and analyzed simultaneously in sets of three. Flow cell 1 was used as the reference flow cell.
(§3) The data were fit to a 1:1 binding model (global Rmax) via Scrubber2 software. In some cases the highest concentrations were omitted to provide a better fit to the 1:1 binding model.

[2] = target: T2, full-length wild type recombinant human LCAT (human, UniProt P04180 25-440); assay: BIAcore 3000 SPR, antibody captured on goat anti-human IgG, LCAT as analyte, 1:1 fit
T2 construct: also called huLCAT; hLCAT
T2 sequence: T1 chain with H158R, D338G, R373H, Q385L
Method: as §1, §2, §3

[3] = target: T1, full-length wild type recombinant …; assay: as above
Method: as §1, §2, §3

[4] = target: T3, full-length wild type recombinant human LCAT protein that carries a His and Flag tag at the C-terminus (human, UniProt P04180 25-440); assay: cell-based or functional assay
T3 sequence: T1 chain with H158R, D338G, R373H, Q385L

[5] = target: T2, full-length wild type recombinant human …; assay: cell-based or functional assay
[6] = target: T2, full-length wild type recombinant human …; assay: cell-based or functional assay; remark: listed apart in the source
[7] = target: T2, full-length wild type recombinant human …; assay: Binding Affinity (nM), Table 10; method not restated (BIAcore of Example 3 presumed)
[8] = target: T1, full-length wild type recombinant …; assay: as above
[9] = target: T2, full-length wild type recombinant human …; assay: cell-based or functional assay; remark: listed apart in the source
[10] = target: T2, full-length wild type recombinant human …; assay: Binding Affinity (nM), Table 12; method not restated (BIAcore of Example 3 presumed)
[11] = target: T1, full-length wild type recombinant …; assay: as above

B1: 25B7 (antibody, V domains shown)
VH: EVQLLESGGGLVQPGGSLRLSCAASGFTFRSYAMNWVRQAPGKGLEWVSTISGSGGSTHYADSVKGRFTISRDNSKNTLYLQLSSLRAEDTAVYYCAKGIAAADYYYYYGMDVWGQGTTVTVSS
VL: SYEVTQPPSVSVSPGQTASITCSGDKLGDKNACWYQQRPGQSPVLVIYQNSKRPSGIPERFSGSNSGNTATLTISGTQAMDEADYYCQAWDSSTVFGGGTRLEVLG
notes: The heavy chain entry ends after CH1 with a tag remnant
Kd [1]: 1.2 nM
Kd [2]: 2.24 nM
Kd [3]: 1.02 nM

B2: 18E5 (antibody, human IgG2, kappa, V domains shown)
VH: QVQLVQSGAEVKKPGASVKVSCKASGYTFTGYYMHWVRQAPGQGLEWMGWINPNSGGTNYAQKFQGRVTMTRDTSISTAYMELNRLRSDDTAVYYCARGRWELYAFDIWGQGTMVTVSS
VL: EIVLTQSPGTLSLSPGERATLSCRASQSVSGSYLTWYQQKPGQAPRLLIYGASSRATGIPDRFSGSGSGTDFTLTISRLEPEDFAMYYCQQYGGSPPFTFGPGTKVDIKR
LCAT Activity (fold the vehicle control activity) [4]: 2.5 fold
Kd [2]: 1.01 nM

B3: 27C3 (antibody, human IgG2, lambda, V domains shown)
VH: QVQLQESGPGLVKPSQTLSLTCTVSGASISSGGYNWSWIRQHPGKGLEWIGYIYYSGSTYYNPSLKSRVTISVDTSKNQFSLKLSSVTAADTAVYYCARERGYCSSTSCSRVMDVWGQGTTVTVSS
VL: SSELTQDPAVSVALGQTVRITCQGDSLRSYYASWYQQKPGQAPVLVIYGKNNRPSGIPDRFSGSSSGNTASLTITGAQAEDEADYYCNSRDNIGNHQVFGGGTKLTVLG
notes: Incompletely N-glycosylated at Asn40 (AHo) of CDRH1
Activity [5]: 100%
EC50 (read off the curve) [6]: ~4 mgAb/mL Plasma
Kd [7]: 1.15 nM
Kd [8]: 128 nM
Kd [2]: 1.15 nM
Kd [3]: 128 nM

B4: 27C3(S42A, S131T, M136I/N107G, I112V) (antibody, human IgG2, lambda, V domains shown)
VH: B3 VH with S37A, S108T, M113I
VL: B3 VL with N88G, I93V
notes: IgG2 lambda; The mutations are already in the entries
Activity [9]: 89%
Kd [10]: 1.3 nM
Kd [11]: 181 nM

B6: 27C3(S42A, S131T, V135I, M136I/N107G) (antibody, human IgG2, lambda, V domains shown)
VH: B3 VH with S37A, S108T, V112I, M113I
VL: B3 VL with N88G
notes: as for B4
Activity [9]: 70%
Kd [10]: 2.8 nM
Kd [11]: 226 nM

B7: 27C3(S42A, S131T, M136I/N107G) (antibody, human IgG2, lambda, V domains shown)
VH: B3 VH with S37A, S108T, M113I
VL: B3 VL with N88G
notes: as for B4
Activity [9]: 65%
Kd [10]: 2.8 nM
Kd [11]: 226 nM

B8: 27C3(S42A, S131T, M136I/I112V) (antibody, human IgG2, lambda, V domains shown)
VH: B3 VH with S37A, S108T, M113I
VL: B3 VL with I93V
notes: as for B4
Activity [9]: 65%
Kd [10]: 3 nM
Kd [11]: 198 nM

B9: 27C3(S42A, S131T, V135I, M136I/I112V) (antibody, human IgG2, lambda, V domains shown)
VH: B3 VH with S37A, S108T, V112I, M113I
VL: B3 VL with I93V
notes: as for B4
Activity [9]: 69%
Kd [10]: 3 nM
Kd [11]: 198 nM

B12: 27C3(S42A, M136I/N107G, I112V) (antibody, human IgG2, lambda, V domains shown)
VH: B3 VH with S37A, M113I
VL: B3 VL with N88G, I93V
notes: as for B4
Activity [9]: 70%
Kd [10]: 1.2 nM
Kd [11]: 190 nM

Next, values leading:

Activity [9]: 83%
Kd [10]: 0.5 nM
Kd [11]: 8 nM
B5: 27C3(S42A, S133T, M136I/N107G, I112V) (antibody, human IgG2, lambda, V domains shown)
VH: B3 VH with S37A, S110T, M113I
VL: B3 VL with N88G, I93V
notes: as for B4

Activity [9]: 46%
Kd [10]: 0.3 nM
Kd [11]: 88 nM
B10: 27C3(S42A, S133T, M136I/I112V) (antibody, human IgG2, lambda, V domains shown)
VH: B3 VH with S37A, S110T, M113I
VL: B3 VL with I93V
notes: as for B4

Activity [9]: 70%
Kd [10]: 34 nM
Kd [11]: 88 nM
B11: 27C3(S42A, S131T, V135I, M136I/N107G, I112V) (antibody, human IgG2, lambda, V domains shown)
VH: B3 VH with S37A, S108T, V112I, M113I
VL: B3 VL with N88G, I93V
notes: as for B4

Activity [9]: 73%
Kd [10]: 0.4 nM
Kd [11]: 62 nM
B13: 27C3(S42A, S133T, M136I/N107G) (antibody, human IgG2, lambda, V domains shown)
VH: B3 VH with S37A, S110T, M113I
VL: B3 VL with N88G
notes: as for B4
